US20210292396A1

Assays:
Assay in all cases: cell-based or functional assay
[1] = target: Env of HIV isolate 001428-2.42 (clade C) (HIV)
[2] = target: Env of HIV isolate 0260.v5.c36 (clade A) (HIV)
[3] = target: Env of HIV isolate 3365.v2.c20 (clade A) (HIV)
[4] = target: Env of HIV isolate 3415.v1.c1 (clade A) (HIV)
[5] = target: Env of HIV isolate 3718.v3.c11 (clade A) (HIV)
[6] = target: Env of HIV isolate 3817.v2.c59 (clade CD) (HIV)
[7] = target: Env of HIV isolate 3988.25 (clade B) (HIV)
[8] = target: Env of HIV isolate 5768.04 (clade B) (HIV)
[9] = target: Env of HIV isolate 6540.v4.c1 (clade AC) (HIV)
[10] = target: Env of HIV isolate BJOX009000.02.4 (clade AE) (HIV)
[11] = target: Env of HIV isolate BJOX010000.06.2 (clade AE) (HIV)
[12] = target: Env of HIV isolate BR025.9 (clade C) (HIV)
[13] = target: Env of HIV isolate BR07.DG (clade B) (HIV)
[14] = target: Env of HIV isolate BX08.16 (clade B) (HIV)
[15] = target: Env of HIV isolate C1080.c3 (clade AE) (HIV)
[16] = target: Env of HIV isolate CAP45.G3 (clade C) (HIV)
[17] = target: Env of HIV isolate CH038.12 (clade BC) (HIV)
[18] = target: Env of HIV isolate CH181.12 (clade BC) (HIV)
[19] = target: Env of HIV isolate CNE10 (clade B) (HIV)
[20] = target: Env of HIV isolate CNE21 (clade BC) (HIV)
[21] = target: Env of HIV isolate JRCSF.JB (clade B) (HIV)
[22] = target: Env of HIV isolate MI369.A5 (clade A) (HIV)
[23] = target: Env of HIV isolate MW965.26 (clade C) (HIV)
[24] = target: Env of HIV isolate R3265.c6 (clade AE) (HIV)
[25] = target: Env of HIV isolate T255-34 (clade AG) (HIV)
[26] = target: Env of HIV isolate T266-60 (clade AG) (HIV)
[27] = target: Env of HIV isolate T33-7 (clade AG) (HIV)
[28] = target: Env of HIV isolate TH023.6 (clade AE) (HIV)
[29] = target: Env of HIV isolate X1193.c1 (clade G) (HIV)
[30] = target: Env of HIV isolate X2278.C2.B6 (clade B) (HIV)
[31] = target: Env of HIV isolate ZM106.9 (clade C) (HIV)
[32] = target: Env of HIV isolate ZM197.7 (clade C) (HIV)
[33] = target: Env of HIV isolate ZM55.28a (clade C) (HIV)
[34] = target: HIV Env of isolate 001428-2.42 (HIV)
[35] = target: HIV Env of isolate 16055-2.3 (HIV)
[36] = target: HIV Env of isolate 288.38 (HIV)
[37] = target: HIV Env of isolate 3168.v4.c10 (HIV)
[38] = target: HIV Env of isolate 3326.v4.c3 (HIV)
[39] = target: HIV Env of isolate 6471.v1.c16 (HIV)
[40] = target: HIV Env of isolate 6631.v3.c10 (HIV)
[41] = target: HIV Env of isolate 96ZM651.02 (HIV)
[42] = target: HIV Env of isolate BR025.9 (HIV)
[43] = target: HIV Env of isolate CNE40 (HIV)
[44] = target: HIV Env of isolate CNE53 (HIV)
[45] = target: HIV Env of isolate DU156.12 (HIV)
[46] = target: HIV Env of isolate UG024.2 (HIV)
[47] = target: HIV Env of isolate X2088.c9 (HIV)
[48] = target: HIV Env of isolate ZA012.29 (HIV)
[49] = target: HIV Env of isolate ZM135.10a (HIV)
[50] = target: HIV Env of isolate ZM233.6 (HIV)

B1: ePGT121.15 (ePGT121.15.H6 VH and ePGT121.15.L1 VL) (antibody, V domains shown)
VH: QMQLQESGPGLVKPGETLSLTCSVSGASISSSYWSWLRETPGKGLEWIGYTHHSGDTNYAPSLKSRVHLGLHPSKNQVSLSLTSVTAADTAVYYCARTLHGRRIYGVVAFNEFFTYFYWEVWGKGTQVTVSS
VL: SDISVAPGETVRISCGGESIGSRAVQWYQHRAGQAPKLIIYNNQDRPPGIPERFSGSPDIDFGTTATLTITNVEAGDEATYYCHIWDSRRPTNWVFGGGTTLTVL
- IC50, pseudovirus neutralization [1]: 2 ng/mL
- IC50, pseudovirus neutralization [2]: 4 ng/mL
- IC50, pseudovirus neutralization [3]: 6 ng/mL
- IC50, pseudovirus neutralization [4]: 17 ng/mL
- IC50, pseudovirus neutralization [5]: 489 ng/mL
- IC50, pseudovirus neutralization [6]: 984 ng/mL
- IC50, pseudovirus neutralization [7]: 4 ng/mL
- IC50, pseudovirus neutralization [8]: 28 ng/mL
- IC50, pseudovirus neutralization [9]: > 50000 ng/mL
- IC50, pseudovirus neutralization [10]: 183 ng/mL
- IC50, pseudovirus neutralization [11]: > 50000 ng/mL
- IC50, pseudovirus neutralization [12]: 2 ng/mL
- IC50, pseudovirus neutralization [13]: 9 ng/mL
- IC50, pseudovirus neutralization [14]: 4 ng/mL
- IC50, pseudovirus neutralization [15]: > 50000 ng/mL
- IC50, pseudovirus neutralization [16]: 2250 ng/mL
- IC50, pseudovirus neutralization [17]: 1 ng/mL
- IC50, pseudovirus neutralization [18]: 3 ng/mL
- IC50, pseudovirus neutralization [19]: 4 ng/mL
- IC50, pseudovirus neutralization [20]: 2 ng/mL
- IC50, pseudovirus neutralization [21]: 8 ng/mL
- IC50, pseudovirus neutralization [22]: 4 ng/mL
- IC50, pseudovirus neutralization [23]: 4 ng/mL
- IC50, pseudovirus neutralization [24]: > 50000 ng/mL
- IC50, pseudovirus neutralization [25]: 45 ng/mL
- IC50, pseudovirus neutralization [26]: 6 ng/mL
- IC50, pseudovirus neutralization [27]: > 50000 ng/mL
- IC50, pseudovirus neutralization [28]: > 50000 ng/mL
- IC50, pseudovirus neutralization [29]: 3 ng/mL
- IC50, pseudovirus neutralization [30]: 2 ng/mL
- IC50, pseudovirus neutralization [31]: 2 ng/mL
- IC50, pseudovirus neutralization [32]: > 50000 ng/mL
- IC50, pseudovirus neutralization [33]: 9 ng/mL
- IC80, pseudovirus neutralization [34]: 5 ng/mL
- IC80, pseudovirus neutralization [35]: 211 ng/mL
- IC80, pseudovirus neutralization [36]: 5 ng/mL
- IC80, pseudovirus neutralization [37]: 75 ng/mL
- IC80, pseudovirus neutralization [38]: 5050 ng/mL
- IC80, pseudovirus neutralization [39]: 6350 ng/mL
- IC80, pseudovirus neutralization [40]: 65 ng/mL
- IC80, pseudovirus neutralization [41]: 4 ng/mL
- IC80, pseudovirus neutralization [42]: 6 ng/mL
- IC80, pseudovirus neutralization [43]: 82 ng/mL
- IC80, pseudovirus neutralization [44]: 15 ng/mL
- IC80, pseudovirus neutralization [45]: 5 ng/mL
- IC80, pseudovirus neutralization [46]: 4720 ng/mL
- IC80, pseudovirus neutralization [47]: 10 ng/mL
- IC80, pseudovirus neutralization [48]: 12 ng/mL
- IC80, pseudovirus neutralization [49]: 508 ng/mL
- IC80, pseudovirus neutralization [50]: 73 ng/mL
